The source of these data is patent publication US11807873B2, “Conversion of S-lignin compounds to useful intermediates” (Alliance for Sustainable Energy, LLC, priority 2020, dated 2023).

Holding throughout (assay): purified protein, by the assay type
Common to all, as to details: other: 2 μM Ht-VanB, 400 μM NADH, air-saturated HEPES (I = 0.1M), pH 7.5, 25° C, VanA 0.4 μM for vanillate, 1 μM for syringate and 3MGA

Substrate in data set [1]: COc1cc(C(=O)O)cc(O)c1O
Substrate in data set [2]: COc1cc(C(=O)O)ccc1O
Substrate in data set [3]: COc1cc(C(=O)O)cc(OC)c1O

B1: VanAB (vanillate O-demethylase) (Pseudomonas putida KT2440) (protein)
chain: MYPKNTWYVACTPDEIATKPLGRQICGEKIVFYRARENQVAAVEDFCPHRGAPLSLGYVEDGNLVCGYHGLVMGCDGKTVSMPGQRVRGFPCNKTFAAVERYGFIWVWPGDQAQADPALIPHLEWAVSDEWAYGGGLFHIGCDYRLMIDNLMDLTHETYVHASSIGQKEIDEAPPVTTVTGDEVVTARHMENIMAPPFWRMALRGNGLADDVPVDRWQICRFTPPSHVLIEVGVAHAGKGGYHAEAQHKASSIVVDFITPESDTSIWYFWGMARNFAAHDQTLTDNIREGQGKIFSEDLEMLERQQQNLLAHPERNLLKLNIDAGGVQSRKVLERIIAQERAPQPQLIATSANPAGKLP
Regarding B1, the results for the Km in data set [1], in data set [2] and in data set [3] were 150 ± 20 µM, 4 ± 1 µM and 16 ± 2 µM, respectively. Further, the catalytic constant (kcat) (commonly the maximal rate divided by the concentration of active sites) in data set [1] turned out to be 0.53 ± 0.02 s⁻¹; in data set [3] it was 0.89 ± 0.03 s⁻¹. Moreover, the kcat/Km in data set [1] was 0.36 ± 0.04 ×10^4 s^−1 · M^−1; in data set [3], 5.5 ± 0.6 ×10^4 s^−1 · M^−1.
